From the supplement of paper PMC7125110
± gives the standard error. For part of these data: This sample holds only a part of the variants without activity.

B1: glmS ribozyme (parent)
chain: AUAAAAGCGCCAGAACUACAGAAAUGUAGUUGACGAGGAGGAGGUUUAUCGAAUUUUCGGCGGAUGCCUCCAAA

Assays:
Settings in all cases: with glucosamine-6-phosphate
glucosamine-6-phosphate [1] = variants of: B1; assay: kcat; higher = faster cleavage; RNA array
How it was run: (§1)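 E. coli RNA polymerase transcribed barcoded ribozyme variants in situ on sequenced MiSeq chips, which were tracked via a hybridised Cy3 probe at 37 °C. Tiles were imaged over ~14 h after glucosamine-6-phosphate (40 μM to 10 mM) in HEPES/KCl/Mg(OAc)2 buffer was flowed in. Normalised per-tile medians were fit to one- or two-exponential decays for kobs, and kcat and KM came from weighted Michaelis–Menten fits.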

glucosamine-6-phosphate [2] = variants of: B1; assay: self-cleavage kobs at 2500 uM GlcN6P; higher = faster cleavage; RNA array
How it was run: as §1

glucosamine-6-phosphate [3] = variants of: B1; assay: self-cleavage kobs at 10000 uM GlcN6P; higher = faster cleavage; RNA array
How it was run: as §1

glucosamine-6-phosphate [4] = variants of: B1; assay: self-cleavage kobs at 160 uM GlcN6P; higher = faster cleavage; RNA array
How it was run: as §1

glucosamine-6-phosphate [5] = variants of: B1; assay: self-cleavage kobs at 40 uM GlcN6P; higher = faster cleavage; RNA array
How it was run: as §1

glucosamine-6-phosphate [6] = variants of: B1; assay: self-cleavage kobs at 640 uM GlcN6P; higher = faster cleavage; RNA array
How it was run: as §1

glucosamine-6-phosphate [7] = variants of: B1; assay: KM; higher = weaker cofactor use; RNA array
How it was run: as §1

Variant | kcat (glucosamine-6-phosphate [1]) [s⁻¹] | self-cleavage kobs at 2500 uM GlcN6P (glucosamine-6-phosphate [2]) [s⁻¹] | self-cleavage kobs at 10000 uM GlcN6P (glucosamine-6-phosphate [3]) [s⁻¹] | self-cleavage kobs at 160 uM GlcN6P (glucosamine-6-phosphate [4]) [s⁻¹] | self-cleavage kobs at 40 uM GlcN6P (glucosamine-6-phosphate [5]) [s⁻¹] | self-cleavage kobs at 640 uM GlcN6P (glucosamine-6-phosphate [6]) [s⁻¹] | KM (glucosamine-6-phosphate [7]) [µM]
G29U A48U | 4.34e-05 ± 5.3e-06 | 4.72e-05 ± 1.3e-05 | 3.9e-05 ± 9.4e-06 |  |  |  | 
G29U A48G | 1.1e-05 ± 1.6e-06 |  |  |  |  |  | 
G29U G59U | < 1e-05 |  |  | < 1e-05 |  |  | 
G29U G59A | 1.03e-05 ± 3.2e-06 |  |  |  | < 1e-05 |  | 
U30G U69A | 8.59e-05 ± 2.5e-05 | 0.00013 ± 2e-05 | 6.73e-05 ± 1.4e-05 | 3.45e-05 ± 1.7e-05 |  | 4.5e-05 ± 1.1e-05 | 
U30C C68G | 4.61e-05 ± 1.8e-05 | 8.75e-05 ± 1.7e-05 | 2.14e-05 ± 9.4e-06 | 5.26e-05 ± 1.7e-05 | 3.15e-05 ± 1.2e-05 | 8.37e-05 ± 1.7e-05 | 
U31A G66A | 0.0119 ± 0.0032 | 0.00305 ± 0.00048 | 0.00767 ± 0.0017 | 0.000259 ± 6.1e-05 | 0.000105 ± 3.4e-05 | 0.00114 ± 0.00021 | 6540 ± 2200
U31A C71A | 0.00261 ± 0.001 | 0.00162 ± 0.00035 | 0.00252 ± 0.00057 | 0.000449 ± 0.00013 | 8.13e-05 ± 2.1e-05 | 0.00049 ± 0.00015 | 
U30C U65A | 2.91e-05 ± 1.2e-05 | 3.76e-05 ± 1.2e-05 |  |  |  |  | 
U30C U55G | 0.00036 ± 1.6e-05 | 0.000236 ± 4.5e-05 | 0.000307 ± 5.8e-05 |  |  | 0.000105 ± 2.8e-05 | 1480 ± 160
U31A G44U | 0.00017 ± 9.6e-06 | 6.38e-05 ± 1.6e-05 | 0.000122 ± 1.8e-05 |  |  |  | 3960 ± 530
U30G G40C | 0.000669 ± 0.0001 | 0.000619 ± 8.6e-05 | 0.000544 ± 0.0001 | 0.000103 ± 1.9e-05 | 3.69e-05 ± 1.2e-05 | 0.000265 ± 3.4e-05 | 864 ± 240
U30G G40U | 0.000787 ± 9.4e-05 | 0.000615 ± 0.00014 | 0.000668 ± 7.3e-05 | 6.94e-05 ± 1.5e-05 | 3.53e-05 ± 1.3e-05 | 0.000212 ± 2.9e-05 | 1610 ± 350
G29U A53G | 0.00448 ± 0.0019 | 0.0021 ± 0.00029 | 0.00417 ± 0.00059 | 0.000262 ± 5.4e-05 | 0.000165 ± 2.5e-05 | 0.000805 ± 0.00012 | 
U31C C67A | 0.00103 ± 0.00015 | 0.000603 ± 0.00011 | 0.000857 ± 0.0001 | 5.29e-05 ± 2.2e-05 | 2.9e-05 ± 6.9e-06 | 0.000244 ± 5.6e-05 | 1970 ± 540
U30A A52U | 0.000132 ± 2.2e-05 | 4.37e-05 ± 1.6e-05 | 9.26e-05 ± 1.4e-05 |  | < 1e-05 |  | 4380 ± 1900
